From FireProtDB (doi:10.1002/prot.20496)
Several values for one entry are separate records, joined by “and”; a condition that tells them apart may be missing. Equal values may be shown once.

B1: Alpha-lactalbumin, P00712 (parent)
chain: MMSFVSLLLVGILFHATQAEQLTKCEVFQKLKDLKDYGGVSLPEWVCTAFHTSGYDTQAIVQNNDSTEYGLFQINNKIWCKDDQNPHSRNICNISCDKFLDDDLTDDIVCAKKILDKVGINYWLAHKALCSEKLDQWLCEKL

Variants of: B1
Conditions: Capra hircus, pH 7.5, Thermal, Tris-HCl 10 mM, CaCl2 2 mM, structure 1HFY, whole UniProt chain shown

| Variant | Tm (DSC) | change of melting temperature, mutant - wild type (higher = more stable) (DSC) | Tm (Fluorescence) | change of melting temperature, mutant - wild type (higher = more stable) (Fluorescence) |
| --- | --- | --- | --- | --- |
| MMSFVSLLLVGILFHATQAEQLTKCEVFQKLKDLKDYGGVSLPEWVCTAFHTSGYDTQAIVQNNDSTEYGLFQINNKIFCKDDQNPHSRNICNISCDKFLDDDLTDDIVCAKKILDKVGINYWLAHKALCSEKLDQWLCEKL [W79F] | 67.9 °C | -3.2 °C | 69.2 °C | -2 °C |
| MMSFVSLLLVGILFHATQAEQLTKCEVFQKLKDLKDYGGVSLPEWVCTAFHTSGYDTQAIVQNNDSTEYGLFQINNKIFCKDDQNPHSRNICNISCDKFLDDDLTDDIVCAKKILDKVGINYWLAHKALCSEKLDQFLCEKL [W79F W137F] | 68.1 °C | -3 °C | 71 °C and 68 °C | -0.2 °C and -1.9 °C |
| MMSFVSLLLVGILFHATQAEQLTKCEVFQKLKDLKDYGGVSLPEWVCTAFHTSGYDTQAIVQNNDSTEYGLFQINNKIWCKDDQNPHSRNICNISCDKFLDDDLTDDIVCAKKILDKVGINYWLAHKALCSEKLDQFLCEKL [W137F] | 71.5 °C | 0.4 °C | – | – |
